Results reported in patent US20080009021A1.

Biological target: E3 His-ROC1/Cul1 complex (UniProt Q13616)
Assay: cell-based or functional assay

Substance: Flag-ubiquitin moiety
- amount of E3 giving maximum attachment of ubiquitin moiety to E3 (luminescence, nickel plate) (ng per 100 µl): 200 to 300
